Laboratory results as given in patent US20090325290A1.

Columns and labels:
[1] = biological target: HLA-DR antigen on the surface of HLA-DR positive cells (tumor cell lines other than PRIESS and LG-2, normal B cells, or cell line not stated) (human); experiment: cell-based or functional assay
[2] = biological target: HLA-DR on the human B-lymphoblastoid cell line LG-2 (human); experiment: cell-based or functional assay
[3] = biological target: HLA-DR (allotype and form not stated); experiment: not stated (Z. A. Nagy, unpublished)

Sequence of murine anti-HLA-DR antibody L243 (VH): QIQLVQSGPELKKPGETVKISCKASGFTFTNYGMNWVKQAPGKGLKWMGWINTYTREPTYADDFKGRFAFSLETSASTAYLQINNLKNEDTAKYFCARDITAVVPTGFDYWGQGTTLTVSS
Sequence of murine anti-HLA-DR antibody L243 (VL): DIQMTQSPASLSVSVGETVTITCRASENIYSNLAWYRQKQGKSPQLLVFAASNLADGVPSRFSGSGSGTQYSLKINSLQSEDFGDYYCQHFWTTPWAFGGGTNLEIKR

murine anti-HLA-DR antibody L243
% killing of ARH-77 cells (DR 12), 200 nM, 4 h [1]: 88%
% killing of BJAB cells (DR 12, 13), 200 nM, 4 h [1]: 53%
% killing of BONNA-12 cells, 200 nM, 4 h [1]: 92%
% killing of DOHH-2 cells (DR 1, 2), 200 nM, 4 h [1]: 29%
% killing of EOL-1 cells, 200 nM, 4 h [1]: 22%
% killing of GRANTA-519 cells (DR 2, 11), 200 nM, 4 h [1]: 83%
% killing of HC-1 cells, 200 nM, 4 h [1]: 88%
% killing of HD-MY-Z cells, 200 nM, 4 h [1]: 35%
% killing of HDLM-2 cells, 200 nM, 4 h [1]: 77%
% killing of KARPAS-299 cells (DR 1, 2), 200 nM, 4 h [1]: 78%
% killing of KARPAS-422 cells (DR 2, 4), 200 nM, 4 h [1]: 25%
% killing of KM-H2 cells, 200 nM, 4 h [1]: 81%
% killing of L1236 cells, 200 nM, 4 h [1]: 52%
% killing of L-363 cells, 200 nM, 4 h [1]: 6%
% killing of L-428 cells (DR 12), 200 nM, 4 h [1]: 82%
% killing of LP-1 cells, 200 nM, 4 h [1]: 12%
% killing of MHH-CALL-4 cells (DR 1, 2), 200 nM, 4 h [1]: 35%
% killing of MHH-PREB-1 cells, 200 nM, 4 h [1]: 3%
% killing of MN-60 cells (DR 10, 13), 200 nM, 4 h [1]: 46%
% killing of NALM-1 cells (DR 1, 4), 200 nM, 4 h [1]: 44%
% killing of RAJI cells (DR 10, 17), 200 nM, 4 h [1]: 69%
% killing of RPMI-8226 cells, 200 nM, 4 h [1]: 6%
% killing of SR-786 cells (DR 1, 2), 200 nM, 4 h [1]: 3%
% killing of LG-2 cells, 200 nM, 4 h [2]: 79%
Kd [3]: 10 nM
